Measured values from article PMC9482650, “Quantitative fragmentomics allow affinity mapping of interactomes” (Nature Communications, 2022).

Columns and labels:
Test in all cases: holdup assay
Design in all cases: key: below the threshold = too weak to quantify, mostly under pKd 3.1 to 4
GRID2IP_1, A4D2P6 = biological target: GRID2IP_1, A4D2P6
PDLIM1, O00151 = biological target: PDLIM1, O00151
GRIP1_7, Q9Y3R0 = biological target: T1, GRIP1_7, Q9Y3R0
T1 sequence (Q9Y3R0 999-1096, limits assumed, looked up): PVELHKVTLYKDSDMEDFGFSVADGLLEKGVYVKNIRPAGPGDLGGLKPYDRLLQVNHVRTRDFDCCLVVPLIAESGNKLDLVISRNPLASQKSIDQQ

FRMPD4, Q14CM0 = biological target: FRMPD4, Q14CM0
CARD11, Q9BXL7 = biological target: T2, CARD11, Q9BXL7
T2 sequence (Q9BXL7 662-765, limits assumed, looked up): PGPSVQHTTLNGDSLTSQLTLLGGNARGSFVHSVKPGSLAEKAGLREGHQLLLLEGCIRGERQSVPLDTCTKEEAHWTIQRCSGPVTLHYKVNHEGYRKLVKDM

GRIP1_5, Q9Y3R0 = biological target: T3, GRIP1_5, Q9Y3R0
T3 sequence (Q9Y3R0 568-668, limits assumed, looked up): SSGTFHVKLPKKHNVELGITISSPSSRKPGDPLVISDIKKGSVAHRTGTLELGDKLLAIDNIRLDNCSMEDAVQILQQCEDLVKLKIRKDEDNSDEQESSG

LDB3, O75112 = biological target: LDB3, O75112
MPDZ_5, O75970 = biological target: T4, MPDZ_5, O75970
T4 sequence (O75970 695-796, limits assumed, looked up): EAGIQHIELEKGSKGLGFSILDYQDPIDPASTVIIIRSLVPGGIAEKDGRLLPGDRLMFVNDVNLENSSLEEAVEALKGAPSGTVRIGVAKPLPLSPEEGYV

PARD3_3, Q8TEW0 = settings: plain residues with an end cap or a label only (N-terminal biotin on a linker: ttds)
MAGI2_6, Q86UL8 = biological target: MAGI2_6, Q86UL8
DLG4_1, P78352 = biological target: DLG4_1, P78352
PDZRN3_1, Q9UPQ7 = biological target: T5, PDZRN3_1, Q9UPQ7
T5 sequence (Q9UPQ7 244-349, limits assumed, looked up): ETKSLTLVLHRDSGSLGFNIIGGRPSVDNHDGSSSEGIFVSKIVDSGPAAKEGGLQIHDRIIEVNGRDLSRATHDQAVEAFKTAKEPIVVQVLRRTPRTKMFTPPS

PARD3B_1, Q8TEW8 = biological target: T6, PARD3B_1, Q8TEW8
T6 sequence (Q8TEW8 196-299, limits assumed, looked up): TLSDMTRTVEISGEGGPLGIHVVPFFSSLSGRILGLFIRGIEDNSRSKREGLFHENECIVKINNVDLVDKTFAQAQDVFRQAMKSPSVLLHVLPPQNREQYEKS

LIN7A, O14910 = biological target: T7, LIN7A, O14910
T7 sequence (O14910 103-200, limits assumed, looked up): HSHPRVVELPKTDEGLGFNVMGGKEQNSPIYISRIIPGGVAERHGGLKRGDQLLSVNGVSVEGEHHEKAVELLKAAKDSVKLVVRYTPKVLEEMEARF

MPDZ_12, O75970 = biological target: T8, MPDZ_12, O75970
T8 sequence (O75970 1857-1958, limits assumed, looked up): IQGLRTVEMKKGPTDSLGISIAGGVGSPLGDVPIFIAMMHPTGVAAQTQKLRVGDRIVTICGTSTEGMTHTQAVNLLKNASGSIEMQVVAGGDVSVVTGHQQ

Inadl_3, Q8NI35 = biological target: Inadl_3, Q8NI35
MAGI2_3, Q86UL8 = biological target: MAGI2_3, Q86UL8
NHERF3_1, Q5T2W1 = biological target: T9, NHERF3_1, Q5T2W1
T9 sequence (Q5T2W1 4-100, limits assumed, looked up): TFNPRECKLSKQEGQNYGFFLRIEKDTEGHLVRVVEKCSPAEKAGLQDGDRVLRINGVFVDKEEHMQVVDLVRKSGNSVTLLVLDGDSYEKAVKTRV

IL16_4, Q14005 = biological target: IL16_4, Q14005
APBA2_1, Q99767 = biological target: T10, APBA2_1, Q99767
T10 sequence (Q99767 563-664, limits assumed, looked up): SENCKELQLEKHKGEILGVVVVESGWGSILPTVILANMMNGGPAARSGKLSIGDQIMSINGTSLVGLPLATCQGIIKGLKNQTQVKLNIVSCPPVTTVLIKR

NOS1, P29475 = biological target: NOS1, P29475
APBA3_1, O96018 = biological target: T11, APBA3_1, O96018
T11 sequence (O96018 389-490, limits assumed, looked up): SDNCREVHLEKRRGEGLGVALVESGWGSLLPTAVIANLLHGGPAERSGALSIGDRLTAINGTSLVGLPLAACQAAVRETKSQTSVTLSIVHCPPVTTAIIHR

FRMPD1, Q5SYB0 = biological target: T12, FRMPD1, Q5SYB0
T12 sequence (Q5SYB0 52-145, limits assumed, looked up): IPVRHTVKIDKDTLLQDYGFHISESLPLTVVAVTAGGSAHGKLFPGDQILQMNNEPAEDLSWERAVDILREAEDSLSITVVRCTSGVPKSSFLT

DLG3_1, Q92796 = biological target: T13, DLG3_1, Q92796
T13 sequence (Q92796 125-227, limits assumed, looked up): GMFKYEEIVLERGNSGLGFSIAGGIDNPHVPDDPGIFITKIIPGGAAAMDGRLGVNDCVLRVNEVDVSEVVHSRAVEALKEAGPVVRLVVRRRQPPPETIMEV

[1] = plain residues with an end cap or a label only (N-terminal biotin on a linker: ttds)
[2] = plain residues with an end cap or a label only (N-terminal biotin on a linker: ahx)

Chain of Inadl_3, Q8NI35 (Q8NI35 359-469): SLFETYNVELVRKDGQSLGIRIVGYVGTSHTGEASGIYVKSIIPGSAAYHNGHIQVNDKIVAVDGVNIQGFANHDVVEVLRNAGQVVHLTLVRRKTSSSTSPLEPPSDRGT
Chain of LDB3, O75112 (O75112 1-94): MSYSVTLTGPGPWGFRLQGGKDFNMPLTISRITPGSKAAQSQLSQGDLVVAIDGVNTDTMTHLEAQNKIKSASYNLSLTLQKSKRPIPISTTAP
Chain of MAGI2_3, Q86UL8 (Q86UL8 600-682): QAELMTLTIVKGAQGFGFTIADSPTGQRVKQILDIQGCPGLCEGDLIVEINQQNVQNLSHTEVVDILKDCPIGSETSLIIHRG
Chain of FRMPD4, Q14CM0 (Q14CM0 67-160): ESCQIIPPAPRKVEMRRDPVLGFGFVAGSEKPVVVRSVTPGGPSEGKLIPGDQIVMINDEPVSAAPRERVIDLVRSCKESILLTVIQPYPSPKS
Chain of MAGI2_6, Q86UL8 (Q86UL8 1141-1229): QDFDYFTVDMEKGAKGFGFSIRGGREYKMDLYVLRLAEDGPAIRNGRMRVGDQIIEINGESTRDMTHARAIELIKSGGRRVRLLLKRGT
Chain of DLG4_1, P78352 (P78352 62-152): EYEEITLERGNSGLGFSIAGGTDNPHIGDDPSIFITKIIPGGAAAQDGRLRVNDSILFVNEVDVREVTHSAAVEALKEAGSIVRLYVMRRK
Chain of PDLIM1, O00151 (O00151 1-87): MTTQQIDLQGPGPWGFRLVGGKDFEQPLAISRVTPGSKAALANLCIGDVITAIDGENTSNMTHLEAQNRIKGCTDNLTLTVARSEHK
Chain of IL16_4, Q14005 (Q14005 1229-1329): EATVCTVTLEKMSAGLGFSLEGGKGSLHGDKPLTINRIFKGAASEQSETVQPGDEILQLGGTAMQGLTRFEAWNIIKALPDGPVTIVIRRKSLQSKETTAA
Chain of NOS1, P29475 (P29475 9-101): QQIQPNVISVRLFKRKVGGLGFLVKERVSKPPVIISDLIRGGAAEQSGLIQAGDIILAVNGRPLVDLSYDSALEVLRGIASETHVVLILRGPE
Chain of GRID2IP_1, A4D2P6 (A4D2P6 1-87): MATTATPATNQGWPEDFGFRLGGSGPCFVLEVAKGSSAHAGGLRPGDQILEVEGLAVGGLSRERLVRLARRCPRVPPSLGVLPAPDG
Chain of PARD3_3, Q8TEW0 (Q8TEW0 582-685): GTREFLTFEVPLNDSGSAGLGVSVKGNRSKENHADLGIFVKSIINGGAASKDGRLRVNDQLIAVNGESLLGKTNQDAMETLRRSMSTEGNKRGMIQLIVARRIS

## QRQARSETLV [HPV59-E6, Q81964]
GRID2IP_1, A4D2P6; [1]
  pKd: below the threshold
PDLIM1, O00151; [1]
  pKd: below the threshold
GRIP1_7, Q9Y3R0; [1]
  pKd: below the threshold
FRMPD4, Q14CM0; [1]
  pKd: below the threshold
CARD11, Q9BXL7; [1]
  pKd: below the threshold
GRIP1_5, Q9Y3R0; [1]
  pKd: below the threshold
LDB3, O75112; [1]
  pKd: below the threshold
MPDZ_5, O75970; [1]
  pKd: 3.81
PARD3_3, Q8TEW0
  pKd: below the threshold
MAGI2_6, Q86UL8; [1]
  pKd: 3.74
DLG4_1, P78352; [1]
  pKd: 5.11
PDZRN3_1, Q9UPQ7; [1]
  pKd: 4.22
PARD3B_1, Q8TEW8; [1]
  pKd: below the threshold
LIN7A, O14910; [1]
  pKd: below the threshold
MPDZ_12, O75970; [1]
  pKd: below the threshold
Inadl_3, Q8NI35; [1]
  pKd: below the threshold
MAGI2_3, Q86UL8; [1]
  pKd: 4.73
NHERF3_1, Q5T2W1; [1]
  pKd: 4.82
IL16_4, Q14005; [1]
  pKd: below the threshold
APBA2_1, Q99767; [1]
  pKd: below the threshold
NOS1, P29475; [1]
  pKd: 4.26
APBA3_1, O96018; [1]
  pKd: below the threshold
FRMPD1, Q5SYB0; [1]
  pKd: below the threshold
DLG3_1, Q92796; [1]
  pKd: 4.58

## NDPAWDETNL [ARHGEF7, Q14155;Q14155-1]
GRID2IP_1, A4D2P6; [1]
  pKd: below the threshold
PDLIM1, O00151; [1]
  pKd: below the threshold
GRIP1_7, Q9Y3R0; [1]
  pKd: below the threshold
FRMPD4, Q14CM0; [1]
  pKd: 4.66
CARD11, Q9BXL7; [1]
  pKd: below the threshold
GRIP1_5, Q9Y3R0; [1]
  pKd: below the threshold
LDB3, O75112; [1]
  pKd: below the threshold
MPDZ_5, O75970; [1]
  pKd: below the threshold
PARD3_3, Q8TEW0
  pKd: 4.16
MAGI2_6, Q86UL8; [1]
  pKd: 3.92
DLG4_1, P78352; [1]
  pKd: below the threshold
PDZRN3_1, Q9UPQ7; [1]
  pKd: 3.92
LIN7A, O14910; [1]
  pKd: below the threshold
MPDZ_12, O75970; [1]
  pKd: below the threshold
Inadl_3, Q8NI35; [1]
  pKd: below the threshold
MAGI2_3, Q86UL8; [1]
  pKd: below the threshold
NHERF3_1, Q5T2W1; [1]
  pKd: 4.26
IL16_4, Q14005; [1]
  pKd: below the threshold
APBA2_1, Q99767; [1]
  pKd: below the threshold
NOS1, P29475; [1]
  pKd: below the threshold
APBA3_1, O96018; [1]
  pKd: below the threshold
FRMPD1, Q5SYB0; [1]
  pKd: below the threshold
DLG3_1, Q92796; [1]
  pKd: below the threshold

## LSDPSVSTVV [GRIN1, Q05586;Q05586-2]
GRID2IP_1, A4D2P6; [2]
  pKd: below the threshold
PDLIM1, O00151; [2]
  pKd: below the threshold
GRIP1_7, Q9Y3R0; [2]
  pKd: below the threshold
FRMPD4, Q14CM0; [2]
  pKd: below the threshold
CARD11, Q9BXL7; [2]
  pKd: below the threshold
GRIP1_5, Q9Y3R0; [2]
  pKd: below the threshold
LDB3, O75112; [2]
  pKd: below the threshold
MPDZ_5, O75970; [2]
  pKd: below the threshold
MAGI2_6, Q86UL8; [2]
  pKd: below the threshold
DLG4_1, P78352; [2]
  pKd: 4.1
PDZRN3_1, Q9UPQ7; [2]
  pKd: below the threshold
PARD3B_1, Q8TEW8; [2]
  pKd: below the threshold
LIN7A, O14910; [2]
  pKd: below the threshold
MPDZ_12, O75970; [2]
  pKd: below the threshold
Inadl_3, Q8NI35; [2]
  pKd: below the threshold
MAGI2_3, Q86UL8; [2]
  pKd: below the threshold
NHERF3_1, Q5T2W1; [2]
  pKd: below the threshold
IL16_4, Q14005; [2]
  pKd: below the threshold
APBA2_1, Q99767; [2]
  pKd: below the threshold
NOS1, P29475; [2]
  pKd: below the threshold
APBA3_1, O96018; [2]
  pKd: below the threshold
FRMPD1, Q5SYB0; [2]
  pKd: below the threshold
DLG3_1, Q92796; [2]
  pKd: below the threshold
